{"source": "patent US7981423B2", "about": "“Rage fusion proteins” (Transtech Pharma, Inc., priority 2004, dated 2011)", "key": {"[1]": {"system": "APP transgenic mice", "experiment": "Mouse model of AD (APP transgenic mice)", "type": "in vivo", "protocol": "Experiments were performed to evaluate whether TTP-4000 could affect amyloid formation and cognitive dysfunction in a mouse model of AD. The experiments utilized transgenic mice expressing the human Swedish mutant amyloid precursor protein (APP) under the control of the PDGF-B chain promoter. Over time, these mice generate high levels of the RAGE ligand, amyloid beta (Aβ).\nThe APP mice (male) used in this experiment were designed by microinjection of the human APP gene (with the Swedish and London mutations) into mouse eggs under the control of the platelet-derived growth factor B (PDGF-B) chain gene promoter. The mice were generated on a C57BL/6 background and were developed by Molecular Therapeutics Inc. Animals were fed ad libituin and maintained by brother sister mating. The mice generated from this construct develop amyloid deposits starting at 6 months of age. Animals were aged for 6 months and then maintained for 90 days and sacrificed for amyloid quantification.\nAPP transgenic mice were administered vehicle or TTP4000 every other day [qod (i.p.)] for 90 days starting at 6 months of age. At the end of the experiment, animals were sacrificed and examined for AP plaque burden in the brain (i.e., plaque number). A 6-month control APP group was used to determine the baseline of amyloid deposits. In addition, at the end of the study, the animals were subjected to behavioral (Morris water maze) analysis. The investigators were blinded to the study compounds. Samples were given to the mice at 0.25 ml/mouse/every other day.\nFor histological examination, the animals were anesthetized with an intraperitoneal injection (IP) of sodium pentobarbital (50 mg/kg). The animals were transcardially perfused with 4° C., phosphate-buffered saline (PBS) followed by 4% paraformaldehyde. The brains were removed and placed in 4% paraformaldehyde over night. The brains were processed to paraffin and embedded. Ten serial 30-μm thick sections through the brain were obtained. Sections were subjected to primary antibody overnight at 4° C. (Aβ peptide antibody) in order to detect the amyloid deposits in the brain of the transgenic animals (Guo et al., J. Neurosci., 22:5900-5909 (2002)). Sections were washed in Tris-buffered saline (TBS) and secondary antibody was added and incubated for 1 hour at room temperature. After washing, the sections were incubated as instructed in the Vector ABC Elite kit (Vector Laboratories) and stained with […] (DAB). The reactions were stopped in water and cover-slipped after treatment with xylene. The amyloid area in each section was determined with a computer-assisted image analysis system, consisting of a Power Macintosh computer equipped with a Quick Capture frame grabber card, Hitachi CCD camera mounted on an Olympus microscope and camera stand. NIH Image Analysis Software, v. 1.55 was used. The images were captured and the total area of amyloid was determined over the ten sections. A single operator blinded to treatment status performed all measurements. Summing the amyloid volumes of the sections and dividing by the total number of sections was done to calculate the amyloid volume.\nFor quantitative analysis, an enzyme-linked immunosorbent assay (ELISA) was used to measure the levels of human total Aβ, Aβtotal and Aβ1-42 in the brains of APP transgenic mice (Biosource International., Camarillo, Calif.). Aβtotal and Aβ1-42 were extracted from mouse brains by guanidine hydrochloride and quantified as described by the manufacturer. […]"}, "[2]": {"system": "male C57BL/6 mice", "experiment": "Animal model of stroke (carotid/cerebral artery occlusion and reperfusion)", "type": "in vivo, mouse", "details": "treated just prior to reperfusion", "protocol": "For example, the RAGE fusion proteins of the present invention may also be used to treat stroke. […] In this model, the […] of a mouse is ligated and then reperfased to form an infart. To assess the efficacy of RAGE fusion proteins to treat or prevent stroke, mice were treated with sRAGE or TTP-4000 or control immunoglobulin just prior to reperfusion.\nTTP-4000 was also compared to sRAGE in a disease relevant animal model of stroke. In this model, the […] of a mouse was ligated for 1 hour followed by 23 hours of reperfusion at which point the mice were sacrificed and the area of the infarct in the brain was assessed. […] After the nylon suture had been in place for 1 hour, the animal was re-anesthetized, rectal temperature was recorded and the suture was removed and the incision closed.\nInfarct volume was determined by anesthetizing the animals with an intraperitoneal injection of sodium pentobarbital (50 mg/kg) and then removing the brains. […] The infarct area in each section was determined with a computer-assisted image analysis system, consisting of a Power Macintosh computer equipped with a Quick Capture frame grabber card, Hitachi CCD camera mounted on a camera stand. […] The images were captured and the total area of infarct was determined over the sections. […] Summing the infarct volumes of the sections calculated the total infarct volume. […]"}}}
{"molecule": "TTP-4000: four domain RAGE fusion protein (SEQ ID NO: 32): human RAGE amino acids 1-251 linked to CH2 and CH3 domains of human IgG (protein) MAAGTAVGAWALVLSLWGAVVGAQNITARIGEPLVLKCKGAPKKPPQRLEWKLNTGRTEAWKVLSPQGGGPWDSVARVLPNGSLFLPAVGIQDEGIFRCQAMNRNGKETKSNYRVRVYQIPGKPEIVDSASELTAGVPNKVGTCVSEGSYPAGTLSWHLDGKPLVPNEKGVSVKEQTRRHPETGLFTLQSELMVTPARGGDPRPTFSCSFSPGLPRHRALRTAPIQPRVWEPVPLEEVQLVVEPEGGAVAPPSVFLFPPKPKDTLMISRTPEVTCVVVDVSHEDPEVKFNWYVDGVEVHNAKTKPREEQYNSTYRVVSVLTVLHQDWLNGKEYKCKVSNKALPAPIEKTISKAKGQPREPQVYTLPPSRDELTKNQVSLTCLVKGFYPSDIAVEWESNGQPENNYKTTPPVLDSDGSFFLYSKLTVDKSRWQQGNVFSCSVMHEALHNHYTQKSLSLSPGK", "values": [{"measurement": "inflammatory cytokines IL-1 and TNF-α", "setting": "[1]; data not shown", "result": "can reduce"}, {"measurement": "Aβ plaques in the brain", "setting": "[1]; treated for 3 months, versus vehicle and human IgG1, FIG. 14A", "result": "fewer Aβ plaques"}, {"measurement": "cognitive dysfunction (Morris water maze)", "setting": "[1]; treated for 3 months, versus vehicle and human IgG1, FIG. 14B", "result": "less cognitive dysfunction"}, {"measurement": "reduction in infarct volume compared to sRAGE (in words)", "setting": "[2]", "result": "significantly greater reduction in infarct volume"}]}
